From patent US7098025B1, “Human peroxisome proliferator activated receptor gamma (pparγ) gene regulatory sequences and uses therefor” (Ligand Pharmaceuticals Incorporated, priority 1997, dated 2006)
Values belong to the molecule of their own block, whether it stands above or below them.

Experiments:
PPARγ = target: T1, PPARγ (Oryctolagus cuniculus, UniProt O19052); experiment: J3-TK-LUC PPRE-driven luciferase reporter in RK-13 cells; assay type: cell-based, rabbit
T1 construct: endogenous in cells; host or cells: RK-13 (rabbit kidney, ATCC)
T1 sequence (O19052 1-475): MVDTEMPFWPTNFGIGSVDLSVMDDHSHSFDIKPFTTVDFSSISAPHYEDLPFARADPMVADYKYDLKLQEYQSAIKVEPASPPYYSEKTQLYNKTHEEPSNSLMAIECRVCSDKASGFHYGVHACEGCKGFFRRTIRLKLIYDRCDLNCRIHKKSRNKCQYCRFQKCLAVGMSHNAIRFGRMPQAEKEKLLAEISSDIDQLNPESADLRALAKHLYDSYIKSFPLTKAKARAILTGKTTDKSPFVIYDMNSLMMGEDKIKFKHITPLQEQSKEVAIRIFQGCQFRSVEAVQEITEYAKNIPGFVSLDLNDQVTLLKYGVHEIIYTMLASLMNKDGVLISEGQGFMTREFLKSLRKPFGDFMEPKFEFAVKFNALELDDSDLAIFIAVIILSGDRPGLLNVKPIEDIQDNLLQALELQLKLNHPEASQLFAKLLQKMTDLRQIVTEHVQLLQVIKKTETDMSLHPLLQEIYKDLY
Procedure: Next we wanted to assess whether the above-mentioned changes in PPARγ expression were associated with changes in the capabilities of PPARγ to transactivate. A PPRE-driven luciferase reporter gene, containing three copies of the apo A-II J site (Vu-Dac et al., 1995), ie. J3-TK-LUC, was transfected into rabbit kidney-derived RK-13 cells and half of the cells were maintained in cholesterol-depleted medium whereas the other half was grown in the same medium supplemented with a mixture of cholesterol and 25-hydroxycholesterol.
Site-directed mutagenesis of the E-box in the PPARγ3 promoter was performed by splicing overlapping ends polymerase chain reaction (Ho, et al., Gene 77:51–59 (1989)), using the oligo pairs LF-106/LF-60 and LF-107/LF-68, to generate the plasmid pGL3γ3p800-E-boxmut. This changed the three bases underlined in the sequence 5′-[…]-3′ to 5′-[…]-3′ (SEQ ID NOS: 41 and 42, respectively. The J3-TK-LUC (Vu-Dac et al., 1995) and ACO-TK-LUC (Osumi et al., Biophys. Res. Commun. 175:866–871 (1991)) luciferase reporter vectors and the expression vectors encoding for ADD-1, a dominant negative form of ADD-1, and SREBP-1a (Tontonoz et al., Mol. Cell. Biol. 13:4753–4759 (1993)); Yokoyama et al., Cell 75:187–197 (1993)) were described before. […]

PPARγ mRNA = experiment: RNase protection assay of PPARγ mRNA in retrovirally infected 3T3-L1 cells; assay type: cell-based, mouse; conditions: 3T3-L1 preadipocytes and adipocytes; retroviral ectopic expression
Procedure: To study the effects of ADD-1 on PPARγ expression in more detail, either an empty retroviral vector pBabe or the same vector encoding for full length ADD-1 or the superactive ADD-1-403 form were introduced into 3T3-L1 cells via retroviral infection. […] Infected cells were then cultured to confluence and consecutively treated with differentiation medium. Total RNA was isolated at confluence (preadipocytes) and at day 6 after confluence (adipocytes) from the cells expressing either the empty pBabe vector or the same vector encoding for ADD-1 or ADD-1-403, a truncated form of ADD-1, equivalent to the proteolytically activated protein, which lacks the membrane anchoring domain. […] The effect of retroviral infection was more pronounced in 3T3-L1 adipocytes relative to preadipocytes.
Control cells received vehicle only.
The absolute mRNA concentration of the differentially spliced PPARγ variants was measured by RNase protection assay exactly as described (Lemberger et al., J. Biol. Chem. 271:1764–1769 (1995)). The full lenght PPARγ2 coding region plus 33 bp of the 5′ UTR was amplified from human adipose tissue RNA by RT-PCR with the primer pair LF-3/LF-36 and was inserted in the inverted orientation (3′ to 5′ in front of the T7 promoter) into the EcoRI site of the expression vector pSG5 (Stratagene, La Jolla, Calif.). […]

ADD-1 = target: T2, ADD-1 (UniProt P56720-1 P56720-1:1-1110); experiment: cell_activity; pGL3gamma3p800 luciferase reporter, Hep G2; conditions: tags: expression vector, Hep G2 cells
T2 sequence: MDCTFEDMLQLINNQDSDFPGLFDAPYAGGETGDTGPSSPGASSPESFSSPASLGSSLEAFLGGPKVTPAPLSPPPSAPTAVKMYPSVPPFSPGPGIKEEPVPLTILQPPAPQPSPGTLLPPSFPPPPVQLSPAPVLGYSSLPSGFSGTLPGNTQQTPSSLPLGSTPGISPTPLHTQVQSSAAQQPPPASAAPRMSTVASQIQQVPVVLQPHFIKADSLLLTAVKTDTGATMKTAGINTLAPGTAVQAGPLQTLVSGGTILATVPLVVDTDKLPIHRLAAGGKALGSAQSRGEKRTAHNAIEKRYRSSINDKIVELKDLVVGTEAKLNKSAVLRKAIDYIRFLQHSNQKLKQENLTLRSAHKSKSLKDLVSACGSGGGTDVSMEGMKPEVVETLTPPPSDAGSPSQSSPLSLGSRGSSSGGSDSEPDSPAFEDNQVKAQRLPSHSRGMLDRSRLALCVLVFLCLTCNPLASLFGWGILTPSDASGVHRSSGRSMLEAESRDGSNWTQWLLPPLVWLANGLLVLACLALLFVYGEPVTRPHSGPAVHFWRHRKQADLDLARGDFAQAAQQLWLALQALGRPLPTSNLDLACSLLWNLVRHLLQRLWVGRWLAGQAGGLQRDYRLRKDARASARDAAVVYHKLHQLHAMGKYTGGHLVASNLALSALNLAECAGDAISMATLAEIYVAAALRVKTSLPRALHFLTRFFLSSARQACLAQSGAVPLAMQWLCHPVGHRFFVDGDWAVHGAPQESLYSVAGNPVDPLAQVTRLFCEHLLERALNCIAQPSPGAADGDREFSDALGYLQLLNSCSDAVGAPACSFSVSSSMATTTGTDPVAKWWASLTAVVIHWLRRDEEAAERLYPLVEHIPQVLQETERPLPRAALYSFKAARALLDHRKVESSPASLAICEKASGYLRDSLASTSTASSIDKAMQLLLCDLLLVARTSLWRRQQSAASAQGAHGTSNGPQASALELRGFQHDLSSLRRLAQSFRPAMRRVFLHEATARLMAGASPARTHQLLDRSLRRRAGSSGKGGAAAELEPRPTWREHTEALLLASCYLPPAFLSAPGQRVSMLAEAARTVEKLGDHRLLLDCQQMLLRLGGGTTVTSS
Description: To assess whether ADD-1 regulates the expression of the hPPARγ3 mRNA, we cotransfected either an expression plasmid coding for ADD-1 together with the pGL3γ3p800 luciferase reporter vector.

[1] = target: T3, hPPARγ2, in vitro transcribed/translated protein (human, UniProt P37231 1-505); experiment: EMSA with in vitro translated proteins on the apoA-II J site PPRE oligonucleotide; heterodimer complex on DNA
T3 construct: PPARγ2 isoform, with the additional N-terminal amino acids encoded by exon B; also called human PPARγ2
T3 sequence (looked up): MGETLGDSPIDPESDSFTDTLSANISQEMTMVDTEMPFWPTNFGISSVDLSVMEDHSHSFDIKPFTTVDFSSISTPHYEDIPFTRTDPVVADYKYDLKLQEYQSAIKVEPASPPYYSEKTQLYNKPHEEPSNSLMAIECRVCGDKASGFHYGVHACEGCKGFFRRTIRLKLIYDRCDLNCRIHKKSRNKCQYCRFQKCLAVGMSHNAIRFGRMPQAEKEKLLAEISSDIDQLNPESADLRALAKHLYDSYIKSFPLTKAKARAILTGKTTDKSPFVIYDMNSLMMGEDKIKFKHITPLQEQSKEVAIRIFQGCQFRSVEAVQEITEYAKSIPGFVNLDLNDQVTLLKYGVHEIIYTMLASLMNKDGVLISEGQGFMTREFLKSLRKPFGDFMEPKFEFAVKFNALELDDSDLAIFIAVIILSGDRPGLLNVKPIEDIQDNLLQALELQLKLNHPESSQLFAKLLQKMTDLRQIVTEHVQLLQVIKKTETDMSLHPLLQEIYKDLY
Procedure: To analyze whether PPARγ could bind to a PPRE, classically composed of direct repeats spaced by one intervening nucleotide (DR-1), EMSA was performed using in vitro transcribed/translated PPARγ2 protein. An oligonucleotide containing a high affinity PPRE, previously identified in the apoA-II promoter J site, was used in EMSA (29).
7. Electrophoretic Mobility Shift Assays (EMSA) and Oligonucleotide Sequences haPPARγ (39), hPPARγ2, and mRXRα (40) proteins were synthesized in vitro in rabbit reticulocyte lysate (Promega). Molecular weights and quality of the in vitro translated proteins were verified by SDS-PAGE. PPAR (2 μl) and/or RXR (2 μl) were incubated for 15 min on ice in a total volume of 20 μl with 1-ng probe, 2.5 μg of poly(dI-dC) and 1 μg of herring sperm DNA in binding buffer (10 mM Tris-HCl pH 7.9, 40 mMKCl, 10% glycerol, 0.05% Nonidet P-40, and 1 mM dithiothreitol). For competition experiments, increasing amounts (from 10- to 200-fold molar excess) of cold oligonucleotide (AII-J-PPRE, 5'-[…]-3' (41) SEQ ID NO: 24; acyl-CoA oxidase (ACO)-PPRE, 5'-[…]-3' (42) SEQ ID NO: 25; or LPL-PPRE, 5'-[…]-3 (23) SEQ ID NO: 26; were included just before adding T4-PNK end-labeled AII-J-PPRE oligonucleotide. DNA-protein complexes were separated by electrophoresis on a 4% polyacrylamide gel in 0.25×TBE buffer at 4° C. (43).

promoter activity of J3-TK-LUC reporter (PPARγ; increasing amounts of ligand, cholesterol-depleted or supplemented medium): dose-dependent activation
Molecule: CN(CCOc1ccc(CC2SC(=O)NC2=O)cc1)c1ccccn1 (centres unmarked) [BRL 49,653]
J3-TK-LUC reporter activation under cholesterol depletion versus supplemented medium (PPARγ; cholesterol-depleted medium): activated to a significantly higher level

B1: ADD-1-403: truncated superactive form of ADD-1 lacking the membrane anchoring domain, equivalent to the proteolytically activated protein (protein, UniProt P56720 1-403, looked up, fragment)
chain: MDELPFGEAALEQALAEVCEMDAALLTDIEDMLQLINNQDSDFPGLFDAPYAGGETGDTGPSSPGASSPESFSSPASLGSSLEAFLGGPKVTPAPLSPPPSAPTAVKMYPSVPPFSPGPGIKEEPVPLTILQPPAPQPSPGTLLPPSFPPPPVQLSPAPVLGYSSLPSGFSGTLPGNTQQTPSSLPLGSTPGISPTPLHTQVQSSAAQQPPPASAAPRMSTVASQIQQVPVVLQPHFIKADSLLLTAVKTDTGATMKTAGINTLAPGTAVQAGPLQTLVSGGTILATVPLVVDTDKLPIHRLAAGGKALGSAQSRGEKRTAHNAIEKRYRSSINDKIVELKDLVVGTEAKLNKSAVLRKAIDYIRFLQHSNQKLKQENLTLRSAHKSKSLKDLVSACGSGGGT
expression of PPARγ mRNA (PPARγ mRNA): significantly more active

B2: PPARgamma3 E-box (LF-102; core printed) (dsDNA)
DNA 1: ATTCATGTGACAT
DNA 2: ATGTCACATGAAT
activity (ADD-1): ≥ 4 fold

binding result [1]: binds
B3: mRXRα, in vitro translated protein (receptor, mouse, UniProt P28700 1-467, looked up)
chain: MDTKHFLPLDFSTQVNSSSLNSPTGRGSMAVPSLHPSLGPGIGSPLGSPGQLHSPISTLSSPINGMGPPFSVISSPMGPHSMSVPTTPTLGFGTGSPQLNSPMNPVSSTEDIKPPLGLNGVLKVPAHPSGNMASFTKHICAICGDRSSGKHYGVYSCEGCKGFFKRTVRKDLTYTCRDNKDCLIDKRQRNRCQYCRYQKCLAMGMKREAVQEERQRGKDRNENEVESTSSANEDMPVEKILEAELAVEPKTETYVEANMGLNPSSPNDPVTNICQAADKQLFTLVEWAKRIPHFSELPLDDQVILLRAGWNELLIASFSHRSIAVKDGILLATGLHVHRNSAHSAGVGAIFDRVLTELVSKMRDMQMDKTELGCLRAIVLFNPDSKGLSNPAEVEALREKVYASLEAYCKHKYPEQPGRFAKLLLRLPALRSIGLKCLEHLFFFKLIGDTPIDTFLMEMLEAPHQAT
notes: also called mouse retinoid X receptor alpha
